What was measured:
[1] = molecular target: CaV1.2 IQ motif peptide F1658A (UniProt P15381); assay: ITC
[2] = molecular target: CaV1.2 IQ motif peptide F1658D (UniProt P15381); assay: ITC
[3] = molecular target: CaV1.2 IQ motif peptide I1654A (UniProt P15381); assay: ITC
[4] = molecular target: CaV1.2 IQ motif peptide Y1649A (UniProt P15381); assay: ITC
[5] = molecular target: CaV1.2 IQ motif peptide Y1657D (UniProt P15381); assay: ITC
[6] = molecular target: fluorescently labeled CaV1.2 IQ peptide K1662E (UniProt P15381); assay: fluorescence polarisation
[7] = molecular target: fluorescently labeled CaV1.2 IQ peptide, wildtype (UniProt P15381); assay: fluorescence polarisation
[8] = molecular target: fluorescently labeled CaV1.2 IQ peptide Y1657D (UniProt P15381); assay: fluorescence polarisation

Substance | Kd [1] | Kd [2] | Kd [3] | Kd [4] | Kd [5] | Kd [6] | Kd [7] | Kd [8]
calmodulin mutant D21A/D23A/D25A/E32Q/D57A/D59A/N61A/E68Q (CaM12’), Ca2+ bound at EF3 and EF4 (from UniProt P0DP23 1-149) (natural protein) | 32 nM | 4000 nM | 60 nM | 26 nM | 8000 nM | < 100 nM | < 100 nM | 
calmodulin, wild type, Ca2+-free (apoCaM) (from UniProt P0DP23 1-149) (natural protein) |  |  |  |  |  |  |  | 60000 nM

From doi:10.1101/2022.06.24.497440
